Biological target: FcRI on U937 cells (human) (UniProt P12314)
Assay: unlabeled protein competing with the same 125I-labeled protein for binding to IFN-γ-treated U937 cells

FcRI on U937 cells (human), sequence (P12314 16-374): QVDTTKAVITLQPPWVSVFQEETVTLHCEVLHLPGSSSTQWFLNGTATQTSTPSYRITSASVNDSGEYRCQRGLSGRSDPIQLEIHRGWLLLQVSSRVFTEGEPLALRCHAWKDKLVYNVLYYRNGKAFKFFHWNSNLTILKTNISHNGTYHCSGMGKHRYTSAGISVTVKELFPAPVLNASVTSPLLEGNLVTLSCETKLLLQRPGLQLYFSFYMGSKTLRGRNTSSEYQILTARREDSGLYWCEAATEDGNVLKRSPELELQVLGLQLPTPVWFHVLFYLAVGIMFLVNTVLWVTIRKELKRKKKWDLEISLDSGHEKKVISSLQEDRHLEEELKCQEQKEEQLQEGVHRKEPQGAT

IC50	Substance
0.07 µM	hCTLA4-IgG1 (from UniProt P16410 37-161) (Fc fusion)
0.075 µM	human IgG1 (antibody)
